Source: article PMC10397247

Tests used:
Experiment in all cases: two-hybrid library CCmax;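 also: natural log of median RNA to DNA barcode read ratio; higher means stronger binding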
APC6088-AA = molecular target: T1, APC6088-AA; details: mean of both orientations
T1 chain: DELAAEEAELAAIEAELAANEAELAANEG

APC4336-AA = molecular target: T2, APC4336-AA
T2 chain: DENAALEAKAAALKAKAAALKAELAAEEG

APC5009-AA = molecular target: T3, APC5009-AA; details: mean of both orientations
T3 chain: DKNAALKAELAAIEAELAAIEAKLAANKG

APC9291-AA = molecular target: T4, APC9291-AA; details: mean of both orientations
T4 chain: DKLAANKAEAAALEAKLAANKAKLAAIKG

APC5531-AA = molecular target: T5, APC5531-AA; details: mean of both orientations
T5 chain: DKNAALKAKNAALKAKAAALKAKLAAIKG

APC9806-AA = molecular target: T6, APC9806-AA; details: mean of both orientations
T6 chain: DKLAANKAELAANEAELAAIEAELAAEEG

APC9182-AA = molecular target: T7, APC9182-AA; details: mean of both orientations
T7 chain: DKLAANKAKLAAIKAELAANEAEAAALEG

APC542-AA = molecular target: T8, APC542-AA; details: mean of both orientations
T8 chain: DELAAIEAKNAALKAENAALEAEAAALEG

APC8401-AA = molecular target: T9, APC8401-AA; details: mean of both orientations
T9 chain: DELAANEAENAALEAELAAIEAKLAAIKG

APC9141-AA = molecular target: T10, APC9141-AA; details: mean of both orientations
T10 chain: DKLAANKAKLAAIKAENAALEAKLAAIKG

APC7524-AA = molecular target: T11, APC7524-AA; details: mean of both orientations
T11 chain: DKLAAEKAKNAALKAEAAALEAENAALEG

APC8516-AA = molecular target: T12, APC8516-AA; details: mean of both orientations
T12 chain: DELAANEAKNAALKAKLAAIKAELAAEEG

DENAALEAKAAALKAKAAALKAELAAEEG [APC4336-AA]
interaction score (APC6088-AA): -1.93
interaction score (APC4336-AA): -3.13
interaction score (APC5009-AA): 1.2
interaction score (APC9291-AA): -2.36
interaction score (APC5531-AA): -2.38
interaction score (APC9806-AA): -1.53
interaction score (APC9182-AA): -1.89
interaction score (APC542-AA): -2.08
interaction score (APC8401-AA): -1.59
interaction score (APC9141-AA): -2.48
interaction score (APC7524-AA): -1.86
interaction score (APC8516-AA): -1.7
